For 1 protein, Km, kcat and kcat/Km results are on record in PMC12406685, “Thiazole substitution of a labile amide bond—a new option toward antiplasmodial pantothenamide-mimics” (Antimicrobial Agents and Chemotherapy, 2025).

Holding throughout (settings): other: compound as substrate of HsPanK3; mean ± SEM; 2c and 2e fitted with substrate inhibition equation 1
Substrate in series [1]: CC(C)(CO)[C@@H](O)C(=O)NCCC(=O)O
Put plainly: purified protein, by the assay type.

Substrate in series [2]: CC(C)(CO)[C@@H](O)C(=O)NCc1csc(Cc2ccccc2)n1
Put plainly: HsPanK kinetic assay (pyruvate kinase/lactic dehydrogenase coupled, NADH at 340 nm). The format is biochemical, human. The procedure:
(§1) The gene encoding the catalytic core domain of human PanK3 (amino acid residues 12–368) was synthesized and cloned into the pET28a(+) expression vector using the NdeI and BamHI restriction sites to produce an N-terminal His6-tagged protein (Bio Basic Inc.). The plasmid was transformed into E. coli BL21(DE3) cells, which were cultured in Terrific Broth (TB) medium containing 50 µg/mL kanamycin at 37°C. When the culture reached an optical density at 600 nm (OD600) of 0.6, protein expression was induced by adding 1.0 mM isopropyl β-D-thiogalactoside (IPTG), followed by incubation at 18°C for 17–18 h. The cells were then harvested and resuspended in lysis buffer (20 mM Tris-HCl, pH 7.5, 500 mM NaCl, 5 mM imidazole, 5% [vol/vol] glycerol) supplemented with 1 mM PMSF (phenylmethylsulfonyl fluoride) and lysozyme (5 mg/g of the cell pellet). The suspension was then sonicated on ice, and the resulting lysate was centrifuged twice at 54,000 × g for 30 min at 4°C.
(§2) The clarified supernatant was incubated with Ni-NTA resin (Cytiva) pre-equilibrated with lysis buffer containing 5 mM imidazole at 4°C. After binding, the resin was washed with lysis buffer containing 30 mM imidazole, then eluted with lysis buffer containing 250 mM imidazole. The eluted HsPanK3 protein was dialyzed against storage buffer (20 mM Tris-HCl, pH 7.5, 200 mM NaCl, 5% [vol/vol] glycerol) and concentrated. The purified protein was stored at −80°C. Protein purity was assessed using SDS-PAGE and deemed >50% (Fig. S4).
(§3) The enzyme assay was adapted from a previously described method ([103]), which links the production of ADP to the consumption of NADH through the enzymatic activities of pyruvate kinase and lactic dehydrogenase. Reactions were conducted in 96-well microtiter plates, and the decrease in NADH concentration was measured at 340 nm at 30 s intervals after incubation at 30°C. Each reaction mixture (200 µL) contained the desired compound (substrate) at variable concentrations (0–2,000 µM), ATP (1.5 mM), NADH (0.3 mM), phospho(enol)pyruvate (2.0 mM), MgCl2 (10 mM), KCl (20 mM), a commercial pyruvate kinase/lactic dehydrogenase mixture (12 units, Sigma-Aldrich), and pantothenate kinase (0.48 µM) in 50 mM Tris–HCl buffer (pH 7.6). The reaction was initiated with the addition of ATP. The kinetic parameters were determined by fitting the rate data into the Michaelis–Menten equation using GraphPad Prism 8.0 with nonlinear regressions. Data were collected from three independent experiments, each performed in triplicate to verify the trends and optimize the selected concentrations. The kinetic parameters were calculated from the most complete triplicate set of data, and errors represent SEM.

Substrate in series [3]: CCCCc1csc(CNC(=O)[C@H](O)C(C)(C)CO)n1
The description is as above. The format is biochemical, human. The procedure: as §1, §2, §3

Substrate in series [4]: CC(C)(CO)[C@@H](O)C(=O)NCc1cnc(-c2ccccc2)s1
The series is described as above. The class given is biochemical, human. The procedure: as §1, §2, §3

Substrate in series [5]: CC(C)(CO)[C@@H](O)C(=O)NCc1csc(-c2ccccc2)n1
The series is described as above. The format is biochemical, human. The procedure: as §1, §2, §3

Substrate in series [6]: CC(C)(CO)[C@@H](O)C(=O)NCc1nc(CCc2ccccc2)cs1
The description is as above. The class given is biochemical, human. The protocol:
as §1, §2, §3

Substrate in series [7]: CCCCCc1csc(CNC(=O)[C@H](O)C(C)(C)CO)n1
The series is described as above. The class given is biochemical, human. The procedure:
as §1, §2, §3

B1: HsPanK3 (Homo sapiens) (protein)
chain: PWFGMDIGGTLVKLSYFEPIDITAEEEQEEVESLKSIRKYLTSNVAYGSTGIRDVHLELKDLTLFGRRGNLHFIRFPTQDLPTFIQMGRDKNFSTLQTVLCATGGGAYKFEKDFRTIGNLHLHKLDELDCLVKGLLYIDSVSFNGQAECYYFANASEPERCQKMPFNLDDPYPLLVVNIGSGVSILAVHSKDNYKRVTGTSLGGGTFLGLCSLLTGCESFEEALEMASKGDSTQADKLVRDIYGGDYERFGLPGWAVASSFGNMIYKEKRESVSKEDLARATLVTITNNIGSVARMCAVNEKINRVVFVGNFLRVNTLSMKLLAYALDYWSKGQLKALFLEHEGYFGAVGALLGLPN
notes: catalytic core domain of human PanK3 (amino acid residues 12–368); made in house; host or cells: E. coli BL21(DE3)
One may read the Km as the substrate concentration at which the rate is half of its maximum. A word on the kcat: it is the number of substrate molecules converted per active site and unit of time at saturation. The term kcat/Km denotes the turnover number divided by the Michaelis constant. On to B1, for which the Michaelis constant (Km) in series [1] worked out at 24 ± 4 µM; in series [2] it was 69 ± 6 µM; in series [3], 100 ± 7 µM; in series [4] it was 75 ± 11 µM; in series [5], 67 ± 10 µM; in series [6], 42 ± 4 µM. Also, the Michaelis constant (Km) in series [7] was 65 ± 7 µM. The catalytic constant (kcat) in series [1] was determined as 0.64 s⁻¹; in series [2], 0.63 ± 0.02 s⁻¹; in series [3], 0.64 ± 0.01 s⁻¹; in series [4], 0.73 ± 0.02 s⁻¹; in series [5], 0.73 ± 0.05 s⁻¹; in series [6], 0.399 ± 0.005 s⁻¹. Further, the kcat in series [7] was 0.61 ± 0.02 s⁻¹. Moreover, the kcat/Km in series [1] stood at 30000 M⁻¹ s⁻¹; in series [2] it was 9300 ± 500 M⁻¹ s⁻¹; in series [3], 6600 ± 400 M⁻¹ s⁻¹; in series [4] it was 10700 ± 800 M⁻¹ s⁻¹; in series [5], 12000 ± 1000 M⁻¹ s⁻¹; in series [6], 10000 ± 1000 M⁻¹ s⁻¹. Further, the kcat/Km in series [7] was 10200 ± 900 M⁻¹ s⁻¹.
